PMC405831 (Journal of Insect Science, 2002)

Target: T1, Ecdysteroid receptor (EcR), ligand binding part (C-terminus of D- and E-domain) (UniProt P34021 400-655)
T1 sequence (looked up): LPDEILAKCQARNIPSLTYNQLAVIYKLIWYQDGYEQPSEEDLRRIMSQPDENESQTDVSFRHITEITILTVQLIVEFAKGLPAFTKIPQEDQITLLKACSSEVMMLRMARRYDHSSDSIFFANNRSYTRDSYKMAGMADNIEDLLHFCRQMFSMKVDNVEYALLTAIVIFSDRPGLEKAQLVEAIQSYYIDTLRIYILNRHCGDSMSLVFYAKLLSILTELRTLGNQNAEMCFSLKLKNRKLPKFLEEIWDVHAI
Experiment: native gel or EMSA

fold of the affinity constant of heterodimerization against homodimerization: ~10 fold
B1: Ultraspiracle (USP), ligand binding part (C-terminus of D- and E-domain) (domain or fragment, UniProt P20153 230-508, looked up)
chain: MTNSVSRDFSIERIIEAEQRAETQCGDRALTFLRVGPYSTVQPDYKGAVSALCQVVNKQLFQMVEYARMMPHFAQVPLDDQVILLKAAWIELLIANVAWCSIVSLDDGGAGGGGGGLGHDGSFERRSPGLQPQQLFLNQSFSYHRNSAIKAGVSAIFDRILSELSVKMKRLNLDRRELSCLKAIILYNPDIRGIKSRAEIEMCREKVYACLDEHCRLEHPGDDGRFAQLLLRLPALRSISLKCQDHLFLFRITSDRPLEELFLEQLEAPPPPGLAMKLE
